Measured values: the supplement of paper PMC10567573

B1: FBXO34 (parent)
chain: PRYREDPCKQCKKKYVKGDVSLCR
B2: WDFY1 (parent)
chain: FWNIKQMWDTKTLGLRQHHCRKCG

Variants of: B1
Assay: protein stability index of a GFP-peptide fusion (GPS, HEK-293T) (PSI 1-6); higher = more stable
Conditions: c terminus: a fixed tail appended
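Also: lentivirally expressed fusions sorted by FACS into six bins by GFP to DsRed ratio, PSI derived from sequencing read proportions per bin multiplied by bin number.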

Compared with PRYREPPCKQCKKKYVKGDVSLCR [D6P], PRYRESPCKQCKKKYVKGDVSLCR [D6S] is higher in protein stability index: 2.22 for the first, 2.5 for the second.

Compared with PRYREYPCKQCKKKYVKGDVSLCR [D6Y], PRYRECPCKQCKKKYVKGDVSLCR [D6C] is higher in protein stability index: 2.3 for the first, 2.61 for the second.

Going from PRYREDCCKQCKKKYVKGDVSLCR [P7C] to PRYREDMCKQCKKKYVKGDVSLCR [P7M], the protein stability index rises from 2.26 to 2.42.

Compared with PRYREDYCKQCKKKYVKGDVSLCR [P7Y], PRYREDQCKQCKKKYVKGDVSLCR [P7Q] is lower in protein stability index: 2.44 for the first, 2.23 for the second.

Compared with PRYREDHCKQCKKKYVKGDVSLCR [P7H], PRYREDICKQCKKKYVKGDVSLCR [P7I] is higher in protein stability index: 2.23 for the first, 2.38 for the second.

Compared with PRYREDVCKQCKKKYVKGDVSLCR [P7V], PRYREDECKQCKKKYVKGDVSLCR [P7E] is higher in protein stability index: 2.19 for the first, 2.76 for the second.

First: PRYREDKCKQCKKKYVKGDVSLCR [P7K]
Second: PRYREDLCKQCKKKYVKGDVSLCR [P7L]
The protein stability index of the first is higher: 2.51 for the first, 1.85 for the second.

Going from PRYREDRCKQCKKKYVKGDVSLCR [P7R] to PRYREDWCKQCKKKYVKGDVSLCR [P7W], the protein stability index rises from 2.31 to 3.07.

First: PRYREDSCKQCKKKYVKGDVSLCR [P7S]
Second: PRYREDDCKQCKKKYVKGDVSLCR [P7D]
The protein stability index of the first is lower: 2.69 for the first, 2.85 for the second.

First: PRYREDTCKQCKKKYVKGDVSLCR [P7T]
Second: PRYREDNCKQCKKKYVKGDVSLCR [P7N]
The protein stability index of the first is lower: 2.18 for the first, 2.94 for the second.

Compared with PRYREDFCKQCKKKYVKGDVSLCR [P7F], PRYREDACKQCKKKYVKGDVSLCR [P7A] is higher in protein stability index: 2.22 for the first, 2.8 for the second.

First: PRYREDGCKQCKKKYVKGDVSLCR [P7G]
Second: YRYREDPCKQCKKKYVKGDVSLCR [P1Y]
The protein stability index of the first is higher: 2.7 for the first, 2.45 for the second.

First: KRYREDPCKQCKKKYVKGDVSLCR [P1K]
Second: GRYREDPCKQCKKKYVKGDVSLCR [P1G]
The protein stability index of the first is higher: 3.65 for the first, 2.89 for the second.

Compared with NRYREDPCKQCKKKYVKGDVSLCR [P1N], ARYREDPCKQCKKKYVKGDVSLCR [P1A] is lower in protein stability index: 3.42 for the first, 3.11 for the second.

First: WRYREDPCKQCKKKYVKGDVSLCR [P1W]
Second: VRYREDPCKQCKKKYVKGDVSLCR [P1V]
The protein stability index of the first is lower: 1.78 for the first, 2.22 for the second.

First: RRYREDPCKQCKKKYVKGDVSLCR [P1R]
Second: MRYREDPCKQCKKKYVKGDVSLCR [P1M]
The protein stability index of the first is higher: 2.96 for the first, 2.75 for the second.

Compared with DRYREDPCKQCKKKYVKGDVSLCR [P1D], QRYREDPCKQCKKKYVKGDVSLCR [P1Q] is lower in protein stability index: 2.96 for the first, 2.86 for the second.

First: IRYREDPCKQCKKKYVKGDVSLCR [P1I]
Second: ERYREDPCKQCKKKYVKGDVSLCR [P1E]
The protein stability index of the first is lower: 2.34 for the first, 3.4 for the second.

Compared with FRYREDPCKQCKKKYVKGDVSLCR [P1F], CRYREDPCKQCKKKYVKGDVSLCR [P1C] is lower in protein stability index: 2.61 for the first, 2.02 for the second.

Compared with SRYREDPCKQCKKKYVKGDVSLCR [P1S], HRYREDPCKQCKKKYVKGDVSLCR [P1H] is higher in protein stability index: 2.6 for the first, 2.85 for the second.

Compared with TRYREDPCKQCKKKYVKGDVSLCR [P1T], LRYREDPCKQCKKKYVKGDVSLCR [P1L] is lower in protein stability index: 2.75 for the first, 1.93 for the second.

Variants of: B2
Assay: as above
Conditions: c terminus: a fixed tail appended

First: FWNVKQMWDTKTLGLRQHHCRKCG [I4V]
Second: FWNAKQMWDTKTLGLRQHHCRKCG [I4A]
The protein stability index of the first is higher: 2.52 for the first, 1.89 for the second.

First: FWNCKQMWDTKTLGLRQHHCRKCG [I4C]
Second: FWNLKQMWDTKTLGLRQHHCRKCG [I4L]
The protein stability index of the first is higher: 2.67 for the first, 1.74 for the second.

First: FWNIKQMWDTKTLVLRQHHCRKCG [G14V]
Second: FWNIKQMWDTKTLFLRQHHCRKCG [G14F]
The protein stability index of the first is lower: 1.58 for the first, 2.78 for the second.

FWNIKQMWDTKTLDLRQHHCRKCG [G14D] and FWNIKQMWDTKTLGLRQHHHRKCG [C20H] are the same in protein stability index: 2.69 for the first, 2.69 for the second.

Compared with FWNIKQMWDTKTLGLRQHHPRKCG [C20P], FWNIKQMWDTKTLGLRQHHTRKCG [C20T] is higher in protein stability index: 1.73 for the first, 2.52 for the second.

First: FWNIKQMWDTKTLGLRQHHERKCG [C20E]
Second: FWNIKQMWDTKTLGLRQHHARKCG [C20A]
The protein stability index of the first is higher: 2.09 for the first, 1.82 for the second.

Compared with FWNIKQMWDTKTLGLRQHHMRKCG [C20M], FWNIKSMWDTKTLGLRQHHCRKCG [Q6S] is lower in protein stability index: 2.57 for the first, 2.01 for the second.

Going from FWNIKEMWDTKTLGLRQHHCRKCG [Q6E] to FWNIKQMWDTKTLGLRQHRCRKCG [H19R], the protein stability index falls from 2.37 to 1.75.

Compared with FWNIKQMWDTKTLGLRQHQCRKCG [H19Q], FWNIKQMWDTKTLGLRQHECRKCG [H19E] is lower in protein stability index: 2.4 for the first, 2.09 for the second.

Going from FWNIKQMWDTKTLGLRQHVCRKCG [H19V] to FWNIKQMWDTKTLGLRQHLCRKCG [H19L], the protein stability index rises from 2.17 to 2.23.

Compared with FWNIKQMWDTKTAGLRQHHCRKCG [L13A], FWNIKQMWDTKTLGLRQHHCRKEG [C23E] is lower in protein stability index: 2.01 for the first, 1.93 for the second.

Going from FWNIKQMWDTKTLGLRQHHCRKTG [C23T] to FVNIKQMWDTKTLGLRQHHCRKCG [W2V], the protein stability index rises from 2.34 to 2.71.

Compared with FWNIKQMQDTKTLGLRQHHCRKCG [W8Q], FWIIKQMWDTKTLGLRQHHCRKCG [N3I] is lower in protein stability index: 2.59 for the first, 1.5 for the second.

Going from FWYIKQMWDTKTLGLRQHHCRKCG [N3Y] to FWLIKQMWDTKTLGLRQHHCRKCG [N3L], the protein stability index falls from 2.37 to 1.54.

Compared with FWHIKQMWDTKTLGLRQHHCRKCG [N3H], FWNIKQMWDTKKLGLRQHHCRKCG [T12K] is higher in protein stability index: 1.85 for the first, 2 for the second.

Compared with FWNIKQMWDTKWLGLRQHHCRKCG [T12W], FWNIKQMWDTKMLGLRQHHCRKCG [T12M] is higher in protein stability index: 1.79 for the first, 2.6 for the second.

Going from FWNIKQMWDTKDLGLRQHHCRKCG [T12D] to FWNIKQMWDTKTLGGRQHHCRKCG [L15G], the protein stability index falls from 1.91 to 1.78.

Compared with FWNIKQMWDTKTLGLRQHHCRQCG [K22Q], DWNIKQMWDTKTLGLRQHHCRKCG [F1D] is higher in protein stability index: 2.01 for the first, 2.79 for the second.

Compared with TWNIKQMWDTKTLGLRQHHCRKCG [F1T], FWNIKQMWMTKTLGLRQHHCRKCG [D9M] is lower in protein stability index: 2.28 for the first, 1.25 for the second.

Compared with FWNIKQMWWTKTLGLRQHHCRKCG [D9W], FWNIKQMWDTKTLGLRQPHCRKCG [H18P] is higher in protein stability index: 1.75 for the first, 2.63 for the second.

Compared with FWNIKQMWDTKTLGLRQQHCRKCG [H18Q], FWNIKQMWDTKTLGLRQWHCRKCG [H18W] is higher in protein stability index: 1.82 for the first, 2.06 for the second.

Compared with FWNIKQMWDTKTLGLRSHHCRKCG [Q17S], FWNIKQMWDTKTLGLRQHHCRKCF [G24F] is lower in protein stability index: 2.05 for the first, 1.96 for the second.

First: FWNIKQMWDTKTLGLRQHHCRKCL [G24L]
Second: FWNIKQMWDTKTLGLRQHHCRKCE [G24E]
The protein stability index of the first is higher: 2.22 for the first, 2.18 for the second.

First: FWNIKQMWDTKTLGLRQHHCRKCQ [G24Q]
Second: FWNIKQMWDKKTLGLRQHHCRKCG [T10K]
The protein stability index of the first is lower: 2.21 for the first, 3.11 for the second.

Compared with FWNIKQMWDTKTLGLRQHHCYKCG [R21Y], FWNIKQMWDTKTLGLRQHHCQKCG [R21Q] is higher in protein stability index: 2.14 for the first, 2.28 for the second.

Going from FWNIKQMWDTFTLGLRQHHCRKCG [K11F] to FWNIKQNWDTKTLGLRQHHCRKCG [M7N], the protein stability index rises from 1.92 to 2.46.
